{
  "source": "paper doi:10.1101/368720",
  "key": {"[1]": {"biological_target": "rabbit skeletal muscle G-actin (rabbit) (UniProt P68135)", "assay": "ITC"}, "[2]": {"biological_target": "rabbit skeletal muscle filamentous actin (rabbit) (UniProt P68135)", "assay": "co-sedimentation"}},
  "data": [
    {"substance": "occidiofungin (native, unmodified) (peptide)", "values": [
      {"measurement": "Kd", "setting": "[1]", "value": 1000, "unit": "nM"},
      {"measurement": "stoichiometry N (occidiofungin per G-actin)", "setting": "[1]", "value": 1},
      {"measurement": "Kd", "setting": "[2]", "value": 1000, "unit": "nM"},
      {"measurement": "stoichiometry N (occidiofungin per actin monomer)", "setting": "[2]", "value": 24}
    ]},
    {"substance": "phalloidin (peptide)", "values": [
      {"measurement": "Kd", "setting": "[2]", "value": 8, "unit": "nM"},
      {"measurement": "stoichiometry N (phalloidin per actin monomer)", "setting": "[2]", "value": 0.6}
    ]}
  ]
}
